Experimental data as given in patent publication US20140223597A1, “Mutated Hydroxyphenylpyruvate Dioxygenase, DNA Sequence and Isolation of Plants Which Are Tolerant To HPPD Inhibitor Herbicides” (Bayer CropScience AG, priority 2008, published 2014).
Substitutions are numbered along the chain they refer to.

How the values were obtained:
[1] = tested on: Arabidopsis thaliana HPPD; assay: Assay for HPPD activity (4-HPP consumption, DNP photometric readout at 405 nm) in presence and absence of Tembotrione; format: biochemical; conditions: uninhibited enzyme activity set to 100%, 444 nM HPPD, 500 μM 4-HPP, 1 h room temperature
Description: (§1) HPPD produces homogentisate and CO2 from 4-HPP and O2. The enzyme is incubated with its substrate 4-HPP in the presence or absence of an inhibitor. L-ascorbic acid is present as a reductant to retain the active site iron in the ferrous form and Catalase is present to degrade toxic H2O2. After an incubation time of one hour, the reaction is stopped by addition of 2,4-Dinitrophenylhydrazine (DNP). DNP forms a hydrazone derivative with the remaining 4-HPP molecules in the assay mixture which appears in an amber-brown colour at an alkaline pH. The amount of unconsumed 4-HPP is measured photometrically at 405 nm.
(§2) For preparation of inhibitor stock solutions, Tembotrione (MW=440.82) and DKN (Mw=359.3) are dissolved in DMSO to a concentration of 10 mM. […] Further dilutions are made with ddH2O to obtain the inhibitor solutions used in the assay (5 μM, 10 μM and 20 μM). […] A 2% DMSO solution provides for half of the assay mixture in uninhibited reactions to normalize a possible inhibiting effect of DMSO.
(§3) The assay is designed for a HPPD concentration of 444 nM on a monomeric basis and a 4-HPP concentration of 500 μM. This corresponds to 44.4 pmol HPPD and 50 nmol 4-HPP in a 100 μL-assay mixture, resulting in an approximate 1000-fold excess of substrate in relation to the enzyme. The calculated theoretical molecular weight of an AtHPPD subunit is 49.515 kD which results in 2.2 μg HPPD per assay mixture. The calculated theoretical molecular weight of a PfHPPD subunit is 41.205 kD, resulting in 1.8 μg HPPD per assay mixture. The enzyme solution provides for one quarter of the assay mixture volume, so enzyme stock solutions are produced by diluting AtHPPD solutions to 88 μg*mL^−1 with 50 mM TRIS buffer; PfHPPD solutions are diluted to 72 μg*mL^−1.
(§4) The inhibitor concentrations (2.5 μM, 5 μM and 10 μM) provide for 5-fold, 10-fold and 20-fold excess of inhibitor compared to the amount of enzyme. A buffer/substrate solution is prepared which provides for one quarter of the assay mixture. 2.5 mL of buffer/substrate solution contain 1 mL 1 M TRIS buffer, 500 μL 10 mM 4-HPP solution, 500 μL 200 mM L-ascorbic acid solution, 13 μL Catalase solution and 487 μL ddH2O. The assay is carried out in Greiner F-bottom 96 well microplates and all reactions are carried out as triplicates. The controls are carried out sixfold per plate and contain either 25 μL 50 mM TRIS instead of HPPD solution (corresponding to 0% consumption of 4-HPP) or a buffer/substrate solution that contains 500 μL 1 M TRIS instead of 500 μL 10 mM 4-HPP (corresponding to 100% consumption of HPP). The reaction is started by addition of 25 μL HPPD solution to a mixture of 50 μL of the respective inhibitor solution or 50 μL 2% DMSO and 25 μL buffer/substrate solution. The reaction is allowed to proceed for 1 h at room temperature. The reaction is stopped and coloration of 4-HPP is induced by addition of 50 μL 0.04% DNP/3.8 N HCl solution. After 15 min, addition of 100 μL 5 N KOH leads to the colour shift of the hydrazone derivative. Photometric measurement with a BMG FLUOstar Galaxy microplate reader is carried out immediately at 405 nm and data obtained is used for analysis of HPPD activities in presence and absence of an inhibitor.

[2] = tested on: Pseudomonas fluorescens HPPD; assay: as above; format: biochemical; conditions: uninhibited enzyme activity set to 100%, 444 nM HPPD, 500 μM 4-HPP, 1 h room temperature
Description: as §1, §2, §3, §4

B1: Gly422 mutant Asn: Arabidopsis thaliana HPPD (SEQ ID NO 4) with Gly422 replaced by Asn, N-terminal His6-tag (protein, UniProt P93836 1-445, looked up, variant G422N)
4-hydroxyphenylpyruvate …: MGHQNAAVSENQNHDDGAASSPGFKLVGFSKFVRKNPKSDKFKVKRFHHIEFWCGDATNVARRFSWGLGMRFSAKSDLSTGNMVHASYLLTSGDLRFLFTAPYSPSLSAGEIKPTTTASIPSFDHGSCRSFFSSHGLGVRAVAIEVEDAESAFSISVANGAIPSSPPIVLNEAVTIAEVKLYGDVVLRYVSYKAEDTEKSEFLPGFERVEDASSFPLDYGIRRLDHAVGNVPELGPALTYVAGFTGFHQFAEFTADDVGTAESGLNSAVLASNDEMVLLPINEPVHGTKRKSQIQTYLEHNEGAGLQHLALMSEDIFRTLREMRKRSSIGGFDFMPSPPPTYYQNLKKRVGDVLSDDQIKECEELGILVDRDDQGTLLQIFTKPLGDRPTIFIEIIQRVGCMMKDEEGKAYQSGGCGGFGKNNFSELFKSIEEYEKTLEAKQLVG
modifications: N-terminal His6-tag
- Relative activity (in percentage) of At HPPD mutants in presence of Tembotrione ([1]; […] Tembotrione): 39%

B2: Ser (protein, UniProt P93836 1-445, looked up, variant G422S)
4-hydroxyphenylpyruvate …: B1 4-hydroxyphenylpyruvate … with N422S
- Relative activity (in percentage) of At HPPD mutants in presence of Tembotrione ([1]; 5 μM Tembotrione): 4%
- Relative activity (in percentage) of At HPPD mutants in presence of Tembotrione ([1]; 10 μM Tembotrione): 0%
- Relative activity (in percentage) of At HPPD mutants in presence of Tembotrione ([1]; […] Tembotrione): 18%

B3: Cys (protein, UniProt P93836 1-445, looked up, variant G422C)
4-hydroxyphenylpyruvate …: B1 4-hydroxyphenylpyruvate … with N422C
- Relative activity (in percentage) of At HPPD mutants in presence of Tembotrione ([1]; 5 μM Tembotrione): 27%
- Relative activity (in percentage) of At HPPD mutants in presence of Tembotrione ([1]; 10 μM Tembotrione): 19%
- Relative activity (in percentage) of At HPPD mutants in presence of Tembotrione ([1]; […] Tembotrione): 44%

B4: Pro (protein, UniProt P93836 1-445, looked up, variant G422P)
4-hydroxyphenylpyruvate …: B1 4-hydroxyphenylpyruvate … with N422P
- Relative activity (in percentage) of At HPPD mutants in presence of Tembotrione ([1]; 5 μM Tembotrione): 0%
- Relative activity (in percentage) of At HPPD mutants in presence of Tembotrione ([1]; 10 μM Tembotrione): 0%
- Relative activity (in percentage) of At HPPD mutants in presence of Tembotrione ([1]; […] Tembotrione): 0%
- Relative activity (in percentage) of Pf HPPD mutants in presence of Tembotrione ([2]; 5 μM Tembotrione): 4%
- Relative activity (in percentage) of Pf HPPD mutants in presence of Tembotrione ([2]; 10 μM Tembotrione): 0%
- Relative activity (in percentage) of Pf HPPD mutants in presence of Tembotrione ([2]; […] Tembotrione): 5%

B5: Phe (protein, UniProt P93836 1-445, looked up, variant G422F)
4-hydroxyphenylpyruvate …: B1 4-hydroxyphenylpyruvate … with N422F
- Relative activity (in percentage) of At HPPD mutants in presence of Tembotrione ([1]; 5 μM Tembotrione): 16%
- Relative activity (in percentage) of At HPPD mutants in presence of Tembotrione ([1]; 10 μM Tembotrione): 11%
- Relative activity (in percentage) of At HPPD mutants in presence of Tembotrione ([1]; […] Tembotrione): 30%
- Relative activity (in percentage) of Pf HPPD mutants in presence of Tembotrione ([2]; 5 μM Tembotrione): 12%
- Relative activity (in percentage) of Pf HPPD mutants in presence of Tembotrione ([2]; 10 μM Tembotrione): 3%
- Relative activity (in percentage) of Pf HPPD mutants in presence of Tembotrione ([2]; […] Tembotrione): 33%

B6: Gly422 mutant Val: Arabidopsis thaliana HPPD (SEQ ID NO 4) with Gly422 replaced by Val, N-terminal His6-tag (protein, UniProt P93836 1-445, looked up, variant G422V)
4-hydroxyphenylpyruvate …: B1 4-hydroxyphenylpyruvate … with N422V
modifications: N-terminal His6-tag
- Relative activity (in percentage) of At HPPD mutants in presence of Tembotrione ([1]; […] Tembotrione): 43%

B7: Leu (protein, UniProt P93836 1-445, looked up, variant G422L)
4-hydroxyphenylpyruvate …: B1 4-hydroxyphenylpyruvate … with N422L
- Relative activity (in percentage) of At HPPD mutants in presence of Tembotrione ([1]; 5 μM Tembotrione): 23%
- Relative activity (in percentage) of At HPPD mutants in presence of Tembotrione ([1]; 10 μM Tembotrione): 14%
- Relative activity (in percentage) of At HPPD mutants in presence of Tembotrione ([1]; […] Tembotrione): 31%
- Relative activity (in percentage) of Pf HPPD mutants in presence of Tembotrione ([2]; 5 μM Tembotrione): 0%
- Relative activity (in percentage) of Pf HPPD mutants in presence of Tembotrione ([2]; 10 μM Tembotrione): 0%
- Relative activity (in percentage) of Pf HPPD mutants in presence of Tembotrione ([2]; […] Tembotrione): 4%

B8: Val (protein, UniProt P93836 1-445, looked up, variant G422V)
4-hydroxyphenylpyruvate …: B1 4-hydroxyphenylpyruvate … with N422V
- Relative activity (in percentage) of At HPPD mutants in presence of Tembotrione ([1]; 5 μM Tembotrione): 22%
- Relative activity (in percentage) of At HPPD mutants in presence of Tembotrione ([1]; 10 μM Tembotrione): 14%
- Relative activity (in percentage) of At HPPD mutants in presence of Tembotrione ([1]; […] Tembotrione): 43%

B9: Asp (protein, UniProt P93836 1-445, looked up, variant G422D)
4-hydroxyphenylpyruvate …: B1 4-hydroxyphenylpyruvate … with N422D
- Relative activity (in percentage) of At HPPD mutants in presence of Tembotrione ([1]; 5 μM Tembotrione): 7%
- Relative activity (in percentage) of At HPPD mutants in presence of Tembotrione ([1]; 10 μM Tembotrione): 10%
- Relative activity (in percentage) of At HPPD mutants in presence of Tembotrione ([1]; […] Tembotrione): 20%
- Relative activity (in percentage) of Pf HPPD mutants in presence of Tembotrione ([2]; 5 μM Tembotrione): 9%
- Relative activity (in percentage) of Pf HPPD mutants in presence of Tembotrione ([2]; 10 μM Tembotrione): 0%
- Relative activity (in percentage) of Pf HPPD mutants in presence of Tembotrione ([2]; […] Tembotrione): 18%

B10: Gly422 mutant His: Arabidopsis thaliana HPPD (SEQ ID NO 4) with Gly422 replaced by His, N-terminal His6-tag (protein, UniProt P93836 1-445, looked up, variant G422H)
4-hydroxyphenylpyruvate …: B1 4-hydroxyphenylpyruvate … with N422H
modifications: N-terminal His6-tag
- Relative activity (in percentage) of At HPPD mutants in presence of Tembotrione ([1]; 5 μM Tembotrione): about 40%
- Relative activity (in percentage) of At HPPD mutants in presence of Tembotrione ([1]; 10 μM Tembotrione): about 40%
- Relative activity (in percentage) of At HPPD mutants in presence of Tembotrione ([1]; […] Tembotrione): 51%

B11: Met (protein, UniProt P93836 1-445, looked up, variant G422M)
4-hydroxyphenylpyruvate …: B1 4-hydroxyphenylpyruvate … with N422M
- Relative activity (in percentage) of At HPPD mutants in presence of Tembotrione ([1]; 5 μM Tembotrione): 13%
- Relative activity (in percentage) of At HPPD mutants in presence of Tembotrione ([1]; 10 μM Tembotrione): 12%
- Relative activity (in percentage) of At HPPD mutants in presence of Tembotrione ([1]; […] Tembotrione): 18%
- Relative activity (in percentage) of Pf HPPD mutants in presence of Tembotrione ([2]; 5 μM Tembotrione): 7%
- Relative activity (in percentage) of Pf HPPD mutants in presence of Tembotrione ([2]; 10 μM Tembotrione): 10%
- Relative activity (in percentage) of Pf HPPD mutants in presence of Tembotrione ([2]; […] Tembotrione): 16%

B12: Asn (protein, UniProt P93836 1-445, looked up, variant G422N)
4-hydroxyphenylpyruvate …: B1 4-hydroxyphenylpyruvate …
- Relative activity (in percentage) of At HPPD mutants in presence of Tembotrione ([1]; 5 μM Tembotrione): 26%
- Relative activity (in percentage) of At HPPD mutants in presence of Tembotrione ([1]; 10 μM Tembotrione): 15%
- Relative activity (in percentage) of At HPPD mutants in presence of Tembotrione ([1]; […] Tembotrione): 39%

B13: His (protein, UniProt P93836 1-445, looked up, variant G422H)
4-hydroxyphenylpyruvate …: B1 4-hydroxyphenylpyruvate … with N422H
- Relative activity (in percentage) of At HPPD mutants in presence of Tembotrione ([1]; 5 μM Tembotrione): 31%
- Relative activity (in percentage) of At HPPD mutants in presence of Tembotrione ([1]; 10 μM Tembotrione): 40%
- Relative activity (in percentage) of At HPPD mutants in presence of Tembotrione ([1]; […] Tembotrione): 50%
- Relative activity (in percentage) of Pf HPPD mutants in presence of Tembotrione ([2]; 5 μM Tembotrione): 13%
- Relative activity (in percentage) of Pf HPPD mutants in presence of Tembotrione ([2]; 10 μM Tembotrione): 11%
- Relative activity (in percentage) of Pf HPPD mutants in presence of Tembotrione ([2]; […] Tembotrione): 26%

B14: Gly422 mutant Cys: Arabidopsis thaliana HPPD (SEQ ID NO 4) with Gly422 replaced by Cys, N-terminal His6-tag (protein, UniProt P93836 1-445, looked up, variant G422C)
4-hydroxyphenylpyruvate …: B1 4-hydroxyphenylpyruvate … with N422C
modifications: N-terminal His6-tag
- Relative activity (in percentage) of At HPPD mutants in presence of Tembotrione ([1]; […] Tembotrione): 44%
